± gives the standard error. This sample holds only a part of the variants without activity.
B1: glmS ribozyme (parent)
chain: AUAAAAGCGCCAGAACUACAGAAAUGUAGUUGACGAGGAGGAGGUUUAUCGAAUUUUCGGCGGAUGCCUCCAAA

Key:
Conditions in all cases: with glucosamine-6-phosphate
glucosamine-6-phosphate [1] = variants of: B1; assay: self-cleavage kobs at 40 uM GlcN6P; higher = faster cleavage; RNA array
Outline: (§1)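 Barcoded ribozyme variants were transcribed in situ on sequenced MiSeq chips by E. coli RNA polymerase. At 37 °C, a hybridised Cy3 probe tracked them while glucosamine-6-phosphate (40 μM to 10 mM) in HEPES/KCl/Mg(OAc)2 buffer flowed in and tiles were imaged over ~14 h. Per-tile medians of signals normalised to baseline and to non-cleaving reference variants were fit to one- or two-exponential decays, giving kobs. kcat and KM came from weighted Michaelis–Menten fits across concentrations.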

glucosamine-6-phosphate [2] = variants of: B1; assay: self-cleavage kobs at 10000 uM GlcN6P; higher = faster cleavage; RNA array
Outline: as §1

glucosamine-6-phosphate [3] = variants of: B1; assay: self-cleavage kobs at 160 uM GlcN6P; higher = faster cleavage; RNA array
Outline: as §1

glucosamine-6-phosphate [4] = variants of: B1; assay: self-cleavage kobs at 2500 uM GlcN6P; higher = faster cleavage; RNA array
Outline: as §1

glucosamine-6-phosphate [5] = variants of: B1; assay: self-cleavage kobs at 640 uM GlcN6P; higher = faster cleavage; RNA array
Outline: as §1

Variant | self-cleavage kobs at 40 uM GlcN6P (glucosamine-6-phosphate [1]) | self-cleavage kobs at 10000 uM GlcN6P (glucosamine-6-phosphate [2]) | self-cleavage kobs at 160 uM GlcN6P (glucosamine-6-phosphate [3]) | self-cleavage kobs at 2500 uM GlcN6P (glucosamine-6-phosphate [4]) | self-cleavage kobs at 640 uM GlcN6P (glucosamine-6-phosphate [5])
A33U A53U A64U | < 1e-05 s⁻¹ | < 1e-05 s⁻¹ |  |  | 
G38U U46G | < 1e-05 s⁻¹ |  | < 1e-05 s⁻¹ | < 1e-05 s⁻¹ | 
G40A U45G | 5.96e-05 ± 1.5e-05 s⁻¹ | 0.000145 ± 3.5e-05 s⁻¹ |  | 0.000133 ± 4.2e-05 s⁻¹ | 0.000563 ± 0.00021 s⁻¹
G7U G35C | < 1e-05 s⁻¹ | < 1e-05 s⁻¹ | < 1e-05 s⁻¹ | < 1e-05 s⁻¹ | < 1e-05 s⁻¹
G13A U30C A42U | < 1e-05 s⁻¹ | < 1e-05 s⁻¹ |  |  | 
C10U C34G G41U A52U C58A G66A C71A | < 1e-05 s⁻¹ |  |  |  | 
U49C U57C | < 1e-05 s⁻¹ | < 1e-05 s⁻¹ | < 1e-05 s⁻¹ |  | < 1e-05 s⁻¹
U55A C70U | 0.00118 ± 0.00012 s⁻¹ |  | 0.00271 ± 0.00065 s⁻¹ |  | 0.00644 ± 0.0011 s⁻¹
G13C C16A G37U | < 1e-05 s⁻¹ | < 1e-05 s⁻¹ |  |  | 
G9U C16G C71U | < 1e-05 s⁻¹ |  |  | < 1e-05 s⁻¹ | 
C11U A64U | < 1e-05 s⁻¹ |  | < 1e-05 s⁻¹ |  | < 1e-05 s⁻¹
A12U G40U C61A | < 1e-05 s⁻¹ | < 1e-05 s⁻¹ |  |  | 
C50U C58U | < 1e-05 s⁻¹ | < 1e-05 s⁻¹ |  |  | < 1e-05 s⁻¹
G35A C50G C61G | 0.000147 ± 3e-05 s⁻¹ | 0.000252 ± 4.7e-05 s⁻¹ |  |  | 
G35A G43U | < 1e-05 s⁻¹ | < 1e-05 s⁻¹ | < 1e-05 s⁻¹ | < 1e-05 s⁻¹ | < 1e-05 s⁻¹
U56C G59C C68G | < 1e-05 s⁻¹ | < 1e-05 s⁻¹ |  |  | 
G9U U31G | < 1e-05 s⁻¹ | < 1e-05 s⁻¹ | < 1e-05 s⁻¹ | < 1e-05 s⁻¹ | < 1e-05 s⁻¹
C8U C10A | < 1e-05 s⁻¹ | < 1e-05 s⁻¹ | < 1e-05 s⁻¹ | < 1e-05 s⁻¹ | < 1e-05 s⁻¹
C10U C11G G43C G59A | < 1e-05 s⁻¹ |  | < 1e-05 s⁻¹ | < 1e-05 s⁻¹ | 
A14G U47G | 0.00069 ± 9.9e-05 s⁻¹ | 0.0324 ± 0.0073 s⁻¹ | 0.00132 ± 0.0004 s⁻¹ | 0.0139 ± 0.0037 s⁻¹ | 0.00356 ± 0.00073 s⁻¹
